B1: Full-length Nxf2, 3xFLAG-tagged [D. melanogaster] / Full-length Panx, HA-tagged [D. melanogaster] (parent complex)
chain 1: MPNQMRVLDFGDGSVPIQLDYPDSKIFSKCSSYGDRVPGTHWNEITVHHKGRLEYSPNPEQIILDALYQAIDGADFFPVFYQRGKNMDTMLVRNCKAAIDKLFKQRLSINLKGGASIPISIQLGVAQYQRHQITPTFHIARVVTRLMKQLIQRDGVDGLLNLDNFGSHPEFKNLVVSLGNPSILMNVCQVIHNDDNERFRLNGFILSNNRIRDIRPLTLLANVDYALLDLRGNKIKSAERLCRALEQFRARELLLENNPIVKISNFPANIKSLESNFELVDGKPFNMLHKIFSPLDVEIDLEVDGARIDTNNMWKLPEFENSQHWHAFMIPDPSHEFNQEVFFDFFFIRLDPTLSNFYPCYYKYINTEHVFLVRNCFDQIAHLVNNCNLEMTIPTGDRIFRYYLRMNVSTVKQHHVDPEECIQKAVSQCYVAQNRMLNLERFHSRECLKDVMVSLSSPKILTYVLSVASRKFMTTCSEIRLCHNKVLVLDGAHVLGMMGCLRAVDLSHNWVQDLSSIHSLGNLPLKSLVLHGNKLCRNYRLPSEYVRAVKEVFPQLTTLDGVDLQTNPGQSLQKNFLCDTGAYELVGAFLENYLREFENDEFRHNLYKYYSENSIFTLTCNYNVVQNHQTPKILQRLSKYNRHARNLRNKDYSKASDGVFFGCTYIVEILLQLPRVTHDFHSLQTDVMHYNGKGAVIYVAGLLRDEPPSTRNGHGSKTDIGGVLLGFSRQFVVTFDEANLGLGKRARRLKIANERLHITNPSKTAIRNAFSVNFPDPSERQAEEDSLDVKDHKLLLFQEVTGLISTWVTSIVEEADWDFERALKLFIQKNADHEIPDLAFA
chain 2: MEAPMKLEVKVENYVECGINEDEATPLREGTGETPPHAFACGVPMSGSGWCSDPEDGNLVHHSATPTSDEHLQPSLDTIEPKMEPKIKEDADNAMLDSLLADPFENNSPATLQTPADVKPNAMLDSVEQGSRSCELLPSEFSKRENLDDMDLFSLKAAKTLVPDEQQSFPQNDTPIDDPEAADLIAQKREILKMLEMTAENRKVKHKKKKHKKERSHRSNKHQEESRKRNHSNSSSDEGADDKNQFDCDYRGHKKYKNRRGSASSQNESSKERKLRDTELDYVPVRPDEHFIRPIKFSNLIERRPPQVEFNTVNLSKADKRSLAVARAELVLEQIQQKANKEEPPEFHMVDTICKLPVNESFRNQDCFENPSPICNNMNVVYKFNSTPGTRIDLSKWGLETVPEATKRLLRLLGIDVARLKELQSTVKPSQRILKLKKEQLEQGLAPTEEQETATLYKNAATQTERRTATRDAGTQVRLESKLNGAFWQNPHFDPMNLTQHQSNVMLALQEIYQTLPSATMAVKLSRALAPALAIIKGRQP

Variants of: B1
Assay: FLAG-tag co-immunoprecipitation, western blot quantification; lysates of transfected S2 cells; read off a plot

log10 ratio	Variant
~-0.45 log10 coIP index [arbitrary unit]	chain 1 R755G

Source: paper PMC6677536 (2019)
